Data from patent publication US20230151079.

test system: Recombinant protein (SEQ ID NO: 1), modified from sculptin of the tick Amblyomma cajennense

Row | Substance | hydrolysis of recombinant protein by serine protease (SDS-PAGE, 6 h)
1 | thrombin | strip intensity of 20-kDa (corresponding to non-digested recombinant protein) decreased and strips of lower molecular weight appeared in recombinant protein incubated by thrombin
2 | plasmin | strip of 20-kDa completely disappeared in recombinant protein incubated by plasm in and trypsin
3 | factor Xa | factor Xa also converted the recombinant protein in fragments
4 | trypsin | strip of 20-kDa completely disappeared in recombinant protein incubated by plasm in and trypsin
